In patent US20260256936A1, “BIOACTIVE CONJUGATES, PREPARATION METHOD AND USE THEREOF” (priority 2023, published 2026):
Like-named read-outs stand apart in the source and are kept apart here.

Experiments:
Experiment in all cases: cell-based or functional assay
[1] = molecular target: T1, CLL1 on CLL1-expressing cells (U937, HL60) (human, UniProt Q5QGZ9 1-265)
T1 sequence (looked up): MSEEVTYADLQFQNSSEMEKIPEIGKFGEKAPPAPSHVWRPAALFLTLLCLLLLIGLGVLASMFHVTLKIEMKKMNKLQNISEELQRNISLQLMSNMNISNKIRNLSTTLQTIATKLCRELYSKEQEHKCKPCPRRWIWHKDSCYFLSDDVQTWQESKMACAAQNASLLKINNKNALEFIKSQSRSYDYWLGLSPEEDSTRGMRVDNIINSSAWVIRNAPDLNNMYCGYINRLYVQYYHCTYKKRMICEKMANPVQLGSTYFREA

[2] = molecular target: T1, CLL1 on CLL1-expressing cells (U937, …); remark: listed apart in the source
[3] = molecular target: T1, CLL1 on CLL1-expressing cells (U937, …); remark: listed apart in the source
[4] = molecular target: T1, CLL1 on CLL1-expressing cells (U937, …); remark: listed apart in the source
[5] = molecular target: T2, B7H3 on B7H3-expressing cells (NCI-H358, NCI-H1048) (human, UniProt Q5ZPR3 29-534)
T2 sequence (looked up): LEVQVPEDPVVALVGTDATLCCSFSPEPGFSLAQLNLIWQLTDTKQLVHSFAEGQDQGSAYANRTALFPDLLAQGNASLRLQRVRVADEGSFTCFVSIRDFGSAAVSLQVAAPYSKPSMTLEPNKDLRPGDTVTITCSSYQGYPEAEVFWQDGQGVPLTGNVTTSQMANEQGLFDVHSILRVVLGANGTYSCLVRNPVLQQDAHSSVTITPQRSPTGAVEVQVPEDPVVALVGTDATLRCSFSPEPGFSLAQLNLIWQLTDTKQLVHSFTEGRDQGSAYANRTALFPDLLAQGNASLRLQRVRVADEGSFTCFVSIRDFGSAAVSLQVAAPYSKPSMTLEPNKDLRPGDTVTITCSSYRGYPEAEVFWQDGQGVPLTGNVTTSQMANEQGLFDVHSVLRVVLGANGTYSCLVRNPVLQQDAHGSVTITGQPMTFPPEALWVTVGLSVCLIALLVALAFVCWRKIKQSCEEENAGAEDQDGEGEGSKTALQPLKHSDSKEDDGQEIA

B1: ADC3-2 (antibody, human IgG1, kappa, V domains shown)
VH: EVQLVQSGAEVKKPGASVKVSCKASGYSFTDYYMHWVRQAPGQGLEWIGRINPYAGAAFYSQNFKDRVTLTVDTSTSTAYLELSSLRSEDTAVYYCAIERGADLEGYAMDYWGQGTLVTVSS
VL: DIQMTQSPSSLSASVGDRVTITCRASQSVSTSSYNYMHWYQQKPGKPPKLLIKYASNLESGVPSRFSGSGSGTDFTLTISSLQPEDFATYYCQHSWEIPLTFGQGTKVEIKR
modifications: conjugator-linker-payload on cysteine thiols after TCEP reduction; positions not given
- EC50 (nM) direct cellular killing, HL60 [1]: 8.2 nM
- EC50 (nM) direct cellular killing, U937 [1]: 0.2 nM
- Emax (%) direct cellular killing, HL60 [1]: 55.9%

B2: ADC3-10 (antibody, human IgG1, kappa, V domains shown)
VH: EVQLVQSGAEVKKPGASVKVSCKASGYSFTDYYMHWVRQAPGQGLEWIGRINPYAGAAFYSQNFKDRVTLTVDTSTSTAYLELSSLRSEDTAVYYCAIERGADLEGYAMDYWGQGTLVTVSS
VL: DIQMTQSPSSLSASVGDRVTITCRASQSVSTSSYNYMHWYQQKPGKPPKLLIKYASNLESGVPSRFSGSGSGTDFTLTISSLQPEDFATYYCQHSWEIPLTFGQGTKVEIKR
modifications: conjugator-linker-payload on cysteine thiols after TCEP reduction; positions not given
- EC50 (nM) direct cellular killing, HL60 [2]: 1.2 nM
- EC50 (nM) direct cellular killing, U937 [2]: 0.7 nM
- Emax (%) direct cellular killing, HL60 [2]: 82.2%

B3: ADC3-8 (antibody, human IgG1, kappa, V domains shown)
VH: EVQLVQSGAEVKKPGASVKVSCKASGYSFTDYYMHWVRQAPGQGLEWIGRINPYAGAAFYSQNFKDRVTLTVDTSTSTAYLELSSLRSEDTAVYYCAIERGADLEGYAMDYWGQGTLVTVSS
VL: DIQMTQSPSSLSASVGDRVTITCRASQSVSTSSYNYMHWYQQKPGKPPKLLIKYASNLESGVPSRFSGSGSGTDFTLTISSLQPEDFATYYCQHSWEIPLTFGQGTKVEIKR
modifications: conjugator-linker-payload on cysteine thiols after TCEP reduction; positions not given
- EC50 (nM) direct cellular killing, HL60 [3]: 0.1 nM
- EC50 (nM) direct cellular killing, U937 [3]: 0.2 nM

B4: ADC3-4 (antibody, human IgG1, kappa, V domains shown)
VH: EVQLVQSGAEVKKPGASVKVSCKASGYSFTDYYMHWVRQAPGQGLEWIGRINPYAGAAFYSQNFKDRVTLTVDTSTSTAYLELSSLRSEDTAVYYCAIERGADLEGYAMDYWGQGTLVTVSS
VL: DIQMTQSPSSLSASVGDRVTITCRASQSVSTSSYNYMHWYQQKPGKPPKLLIKYASNLESGVPSRFSGSGSGTDFTLTISSLQPEDFATYYCQHSWEIPLTFGQGTKVEIKR
modifications: conjugator-linker-payload on cysteine thiols after TCEP reduction; positions not given
- EC50 (nM) direct cellular killing, HL60 [1]: 1.1 nM
- EC50 (nM) direct cellular killing, U937 [1]: 0.2 nM
- Emax (%) direct cellular killing, HL60 [1]: 98%

B5: ADC3-5 (antibody, human IgG1, kappa, V domains shown)
VH: EVQLVQSGAEVKKPGASVKVSCKASGYSFTDYYMHWVRQAPGQGLEWIGRINPYAGAAFYSQNFKDRVTLTVDTSTSTAYLELSSLRSEDTAVYYCAIERGADLEGYAMDYWGQGTLVTVSS
VL: DIQMTQSPSSLSASVGDRVTITCRASQSVSTSSYNYMHWYQQKPGKPPKLLIKYASNLESGVPSRFSGSGSGTDFTLTISSLQPEDFATYYCQHSWEIPLTFGQGTKVEIKR
modifications: conjugator-linker-payload on cysteine thiols after TCEP reduction; positions not given
- EC50 (nM) direct cellular killing, U937 [4]: 1 nM
- Emax (%) direct cellular killing, HL60 [4]: 79.8%

B6: ADC3-9 (antibody, human IgG1, kappa, V domains shown)
VH: EVQLVQSGAEVKKPGASVKVSCKASGYSFTDYYMHWVRQAPGQGLEWIGRINPYAGAAFYSQNFKDRVTLTVDTSTSTAYLELSSLRSEDTAVYYCAIERGADLEGYAMDYWGQGTLVTVSS
VL: DIQMTQSPSSLSASVGDRVTITCRASQSVSTSSYNYMHWYQQKPGKPPKLLIKYASNLESGVPSRFSGSGSGTDFTLTISSLQPEDFATYYCQHSWEIPLTFGQGTKVEIKR
modifications: conjugator-linker-payload on cysteine thiols after TCEP reduction; positions not given
- EC50 (nM) direct cellular killing, HL60 [3]: 1.7 nM
- EC50 (nM) direct cellular killing, U937 [3]: 0.6 nM

B7: ADC3-7 (antibody, human IgG1, kappa, V domains shown)
VH: EVQLVQSGAEVKKPGASVKVSCKASGYSFTDYYMHWVRQAPGQGLEWIGRINPYAGAAFYSQNFKDRVTLTVDTSTSTAYLELSSLRSEDTAVYYCAIERGADLEGYAMDYWGQGTLVTVSS
VL: DIQMTQSPSSLSASVGDRVTITCRASQSVSTSSYNYMHWYQQKPGKPPKLLIKYASNLESGVPSRFSGSGSGTDFTLTISSLQPEDFATYYCQHSWEIPLTFGQGTKVEIKR
modifications: conjugator-linker-payload on cysteine thiols after TCEP reduction; positions not given
- EC50 (nM) direct cellular killing, HL60 [3]: 0.4 nM
- EC50 (nM) direct cellular killing, U937 [3]: 0.3 nM

B8: ADC3-1 (antibody, human IgG1, kappa, V domains shown)
VH: EVQLVQSGAEVKKPGASVKVSCKASGYSFTDYYMHWVRQAPGQGLEWIGRINPYAGAAFYSQNFKDRVTLTVDTSTSTAYLELSSLRSEDTAVYYCAIERGADLEGYAMDYWGQGTLVTVSS
VL: DIQMTQSPSSLSASVGDRVTITCRASQSVSTSSYNYMHWYQQKPGKPPKLLIKYASNLESGVPSRFSGSGSGTDFTLTISSLQPEDFATYYCQHSWEIPLTFGQGTKVEIKR
modifications: conjugator-linker-payload on cysteine thiols after TCEP reduction; positions not given
- EC50 (nM) direct cellular killing, HL60 [1]: 5.7 nM
- EC50 (nM) direct cellular killing, U937 [1]: 0.5 nM

B9: ADC3-11 (antibody, human IgG1, kappa, V domains shown)
VH: EVQLVQSGAEVKKPGASVKVSCKASGYSFTDYYMHWVRQAPGQGLEWIGRINPYAGAAFYSQNFKDRVTLTVDTSTSTAYLELSSLRSEDTAVYYCAIERGADLEGYAMDYWGQGTLVTVSS
VL: DIQMTQSPSSLSASVGDRVTITCRASQSVSTSSYNYMHWYQQKPGKPPKLLIKYASNLESGVPSRFSGSGSGTDFTLTISSLQPEDFATYYCQHSWEIPLTFGQGTKVEIKR
modifications: conjugator-linker-payload on cysteine thiols after TCEP reduction; positions not given
- EC50 (nM) direct cellular killing, HL60 [2]: 4.6 nM
- EC50 (nM) direct cellular killing, U937 [2]: 12.8 nM
- Emax (%) direct cellular killing, HL60 [2]: 43.9%
- Emax (%) direct cellular killing, U937 [2]: 78.7%

B10: ADC3-12 (antibody, human IgG1, kappa, V domains shown)
VH: EVQLVQSGAEVKKPGASVKVSCKASGYSFTDYYMHWVRQAPGQGLEWIGRINPYAGAAFYSQNFKDRVTLTVDTSTSTAYLELSSLRSEDTAVYYCAIERGADLEGYAMDYWGQGTLVTVSS
VL: DIQMTQSPSSLSASVGDRVTITCRASQSVSTSSYNYMHWYQQKPGKPPKLLIKYASNLESGVPSRFSGSGSGTDFTLTISSLQPEDFATYYCQHSWEIPLTFGQGTKVEIKR
modifications: conjugator-linker-payload on cysteine thiols after TCEP reduction; positions not given
- EC50 (nM) direct cellular killing, HL60 [2]: 8 nM
- EC50 (nM) direct cellular killing, U937 [2]: 0.7 nM
- Emax (%) direct cellular killing, HL60 [2]: 81%

B11: ADC3-6 (antibody, human IgG1, kappa, V domains shown)
VH: EVQLVQSGAEVKKPGASVKVSCKASGYSFTDYYMHWVRQAPGQGLEWIGRINPYAGAAFYSQNFKDRVTLTVDTSTSTAYLELSSLRSEDTAVYYCAIERGADLEGYAMDYWGQGTLVTVSS
VL: DIQMTQSPSSLSASVGDRVTITCRASQSVSTSSYNYMHWYQQKPGKPPKLLIKYASNLESGVPSRFSGSGSGTDFTLTISSLQPEDFATYYCQHSWEIPLTFGQGTKVEIKR
modifications: conjugator-linker-payload on cysteine thiols after TCEP reduction; positions not given
- EC50 (nM) direct cellular killing, HL60 [4]: 0.4 nM
- EC50 (nM) direct cellular killing, U937 [4]: 0.6 nM

B12: ADC3-3 (antibody, human IgG1, kappa, V domains shown)
VH: EVQLVQSGAEVKKPGASVKVSCKASGYSFTDYYMHWVRQAPGQGLEWIGRINPYAGAAFYSQNFKDRVTLTVDTSTSTAYLELSSLRSEDTAVYYCAIERGADLEGYAMDYWGQGTLVTVSS
VL: DIQMTQSPSSLSASVGDRVTITCRASQSVSTSSYNYMHWYQQKPGKPPKLLIKYASNLESGVPSRFSGSGSGTDFTLTISSLQPEDFATYYCQHSWEIPLTFGQGTKVEIKR
modifications: conjugator-linker-payload on cysteine thiols after TCEP reduction; positions not given
- EC50 (nM) direct cellular killing, HL60 [1]: 1.6 nM
- EC50 (nM) direct cellular killing, U937 [1]: 0.2 nM

B13: ADC4-1 (antibody, human IgG1, kappa, V domains shown)
VH: QVQLVQSGAEVKKPGSSVKVSCKASGYTFTNYVMHWVRQAPGQGLEWMGYINPYNDDVKYNEKFKGRVTITADESTSTAYMELSSLRSEDTAVYYCARWGYYGSPLYYFDYWGQGTLVTVSS
VL: EIVLTQSPATLSLSPGERATLSCRASSRLIYMHWYQQKPGQAPRPLIYATSNLASGIPARFSGSGSGTDFTLTISSLEPEDFAVYYCQQWNSNPPTFGQGTKVEIKR
modifications: conjugator-linker-payload on cysteine thiols after TCEP reduction; positions not given
- EC50 (nM) direct cellular killing, NCI-H358 [5]: 0.1 nM
- EC50 (nM) direct cellular killing, NCI-H1048 [5]: 0.6 nM
- Emax (%) direct cellular killing, NCI-H358 [5]: 82.8%
- Emax (%) direct cellular killing, NCI-H1048 [5]: 83.6%

B14: ADC4-2 (antibody, human IgG1, kappa, V domains shown)
VH: QVQLVQSGAEVKKPGSSVKVSCKASGYTFTNYVMHWVRQAPGQGLEWMGYINPYNDDVKYNEKFKGRVTITADESTSTAYMELSSLRSEDTAVYYCARWGYYGSPLYYFDYWGQGTLVTVSS
VL: EIVLTQSPATLSLSPGERATLSCRASSRLIYMHWYQQKPGQAPRPLIYATSNLASGIPARFSGSGSGTDFTLTISSLEPEDFAVYYCQQWNSNPPTFGQGTKVEIKR
modifications: conjugator-linker-payload on cysteine thiols after TCEP reduction; positions not given
- EC50 (nM) direct cellular killing, NCI-H358 [5]: 0.1 nM
- Emax (%) direct cellular killing, NCI-H358 [5]: 81%
- Emax (%) direct cellular killing, NCI-H1048 [5]: 62%

B15: ADC4-3 (antibody, human IgG1, kappa, V domains shown)
VH: QVQLVQSGAEVKKPGSSVKVSCKASGYTFTNYVMHWVRQAPGQGLEWMGYINPYNDDVKYNEKFKGRVTITADESTSTAYMELSSLRSEDTAVYYCARWGYYGSPLYYFDYWGQGTLVTVSS
VL: EIVLTQSPATLSLSPGERATLSCRASSRLIYMHWYQQKPGQAPRPLIYATSNLASGIPARFSGSGSGTDFTLTISSLEPEDFAVYYCQQWNSNPPTFGQGTKVEIKR
modifications: conjugator-linker-payload on cysteine thiols after TCEP reduction; positions not given
- EC50 (nM) direct cellular killing, NCI-H358 [5]: 0.1 nM
- EC50 (nM) direct cellular killing, NCI-H1048 [5]: 1.6 nM
- Emax (%) direct cellular killing, NCI-H358 [5]: 79.9%
- Emax (%) direct cellular killing, NCI-H1048 [5]: 80%
